Measurements taken from patent publication US9234036B2, “Modulation of activity of proneurotrophins” (H. Lundbeck A/S, priority 2006, dated 2016).

Experiments:
pro-dom-BDNF [1] = target: T1, pro-dom-BDNF (Homo sapiens, UniProt P23560); test: SPOT analysis of pro-dom-BDNF binding to cellulose-bound sortilin peptides; details: HRP-S-protein detection where stated
T1 construct: pro-dom-BDNF (residues Ala^1-Arg^110); made in house; host or cells: E. coli BL21/DE3
T1 sequence (P23560 19-128 limits assumed): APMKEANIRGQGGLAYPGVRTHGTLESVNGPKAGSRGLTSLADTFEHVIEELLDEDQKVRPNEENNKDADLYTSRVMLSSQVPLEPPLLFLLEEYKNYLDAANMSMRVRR
Text: (§1) Peptide libraries were generated for all members of the Vps10p-domain receptor gene family or specific peptide variations in terms of substitution or length of identified Sortilin binding peptides. A total of 2181 peptides was used for representation of the Sortilin gene family, corresponding to 273 peptides for Sortilin (accession code: CAA66904), 734 peptides for SorLA (accession code: NP_003096), 389 peptides for SorCS1 (accession code: NP_001013049), 382 peptides for sorCS2 (accession code: Q96PQ0), and 403 peptides for SorCS3 (accession code: CAI64579), with a 13 amino acid overlap between 16-mers.
(§2) A cellulose support is prepared as a N-modified cellulose-amino-hydroxylpropyl ether membrane, and all rounds of synthesis starts with SPOT definition by 9-fluorenyl-methoxycarbonyl-β-alanine-pentafluoophenyl ester that creates an alanine linker between peptide and membrane. Then followed an automated linear synthesis of stepwise addition of the different amino acids protected at their amino terminal by 9-fluorenyl-methoxycarbonyl and appropriate side chain protection for the growing peptide chain. The pattern of deprotection, activation, and coupling continued until 16-mer peptides were produced, resulting in an equally distributed array of covalently anchored peptides to the cellulose support at their C-terminal and an N-terminal free end.
(§3) The membrane-bound libraries were incubated with a combined S-peptide and poly-histidine-tagged pro-domains (10 ug/mL) in blocking buffer over night at 4 C, followed by a second incubation with 1 ug/mL of HRP-conjugated S-protein from Novagen (cat. no. 69047-3) also in blocking buffer but for 3 h at room temperature. Subsequently, the membrane was washed three times for 10 min with TBS before quantitative characterization of bound ligand was carried out using the UptiLight chemoluminescence substrate from Uptima (cat. no. UP99619A) and the Lumilmager instrument from Roche Diagnostics, providing the SPOT signal intensities in Boehringer Light Units (BLUs). […]

pro-dom-NGF [2] = target: T2, pro-dom-NGF (Homo sapiens, UniProt P01138, A35V); test: SPOT analysis of pro-dom-NGF binding to cellulose-bound sortilin peptides; details: HRP-S-protein detection where stated
T2 construct: pro-dom-NGF (residues Glu^1-Arg^102); made in house; host or cells: E. coli BL21/DE3
T2 sequence (P01138 19-121 A35V): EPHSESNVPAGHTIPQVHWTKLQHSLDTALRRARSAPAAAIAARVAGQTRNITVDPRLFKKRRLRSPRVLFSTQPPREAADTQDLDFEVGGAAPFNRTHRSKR
Text: as §1, §2, §3

pro-dom-BDNF [3] = target: T1, pro-dom-BDNF; test: SPR direct binding of sortilin peptides to immobilized pro-dom-BDNF; details: for direct interaction with immobilized pro-dom-BDNF: concentration series of peptide, FIG. 18; for affinity towards pro-dom-BDNF compared with pro-dom-NGF: single peptide concentration, identical amounts of immobilized pro-dom-NGF and -BDNF
Text: (§4) FIG. 18: Surface plasmon resonance binding analysis of sortilin peptides to pro-dom-NGF and -BDNF. The direct interaction between sortilin peptides (as identified by SPOT analysis) and the pro-domains of NGF and BDNF was verified by surface plasmon resonance analysis using immobilized pro-dom-NGF and -BDNF. […] The numbering in this figure refers to the mature part of Sortilin.
(§5) A biosensor chip from Biacore (CM5, cat. no. BR-1000-14) was activated using the NHS/EDC method as described by supplier followed by coating with Sortilin to a protein densitiy of 79 fmol/mm2, and used for affinity measurements of the recombinant pro-domains of NGF and BDNF. Regeneration of the flow cell after each cycle of ligand binding experiment was performed by two 10 uL pulses of regeneration buffer (10 mM glycine-HCl, pH 4.0, 500 mM NaCl, 20 mM EDTA, and 0.005% Tween-20) and a single injection of 0.001% SDS. Fitting of sensorgrams for affinity estimations was performed using the Biaevaluation version 3.1. Following similar protocols, immobilization of pro-dom-NGF or pro-dom-BDNF was also performed on a CM5 biosensor chip using the NHS/EDC coupling kit according to manufactures instructions (Biacore, Sweden), giving similar surface densitites of immobilized protein (˜300 fmol/mm2). […] This chip was subsequent used to examine the binding of 390 nM wild-type Sortilin domain in CaHBS buffer at a flow of 5 uL/min, which in the absence of any competing peptide gave a ˜300 RU signal.

pro-dom-NGF [4] = target: T2, pro-dom-NGF; test: SPR direct binding of sortilin peptides to immobilized pro-dom-NGF; details: concentration series of peptide, FIG. 18
Text: as §4
A biosensor chip from Biacore (CM5, cat. no. BR-1000-14) was activated using the NHS/EDC method as described by supplier followed by coating with Sortilin to a protein densitiy of 79 fmol/mm2, and used for affinity measurements of the recombinant pro-domains of NGF and BDNF. Regeneration of the flow cell after each cycle of ligand binding experiment was performed by two 10 uL pulses of regeneration buffer (10 mM glycine-HCl, pH 4.0, 500 mM NaCl, 20 mM EDTA, and 0.005% Tween-20) and a single injection of 0.001% SDS. Fitting of sensorgrams for affinity estimations was performed using the Biaevaluation version 3.1. Following similar protocols, immobilization of pro-dom-NGF or pro-dom-BDNF was also performed on a CM5 biosensor chip using the NHS/EDC coupling kit according to manufactures instructions (Biacore, Sweden), giving similar surface densitites of immobilized protein (˜300 fmol/mm2). […]

[5] = target: T3, Sortilin binding to immobilized pro-dom-BDNF (Homo sapiens, UniProt P23560); test: SPR competition: Sortilin binding to immobilized pro-dom-BDNF in presence of sortilin peptide
T3 construct: pro-dom-BDNF (residues Ala^1-Arg^110); made in house; host or cells: pro-dom-BDNF: E. coli BL21/DE3; Sortilin: EBNA293 cells
T3 sequence (P23560 19-128 limits assumed): T1 sequence (P23560 19-128 limits assumed)
Protocol: FIG. 19: Surface plasmon resonance analysis of competition studies by the sortilin peptides.
as §5

[6] = target: T4, p75-IgG-Fc chimeric protein (Homo sapiens, UniProt P08138); test: Surface plasmon resonance (BIAcore) binding to immobilized p75-IgG-Fc; details: 91.5 fmol/mm^2 immobilized p75-IgG-Fc; calculated from on and off rates
T4 construct: purchased R&D systems (Oxon, UK)
T4 sequence (P08138 with tags, fused parts or gaps limits assumed): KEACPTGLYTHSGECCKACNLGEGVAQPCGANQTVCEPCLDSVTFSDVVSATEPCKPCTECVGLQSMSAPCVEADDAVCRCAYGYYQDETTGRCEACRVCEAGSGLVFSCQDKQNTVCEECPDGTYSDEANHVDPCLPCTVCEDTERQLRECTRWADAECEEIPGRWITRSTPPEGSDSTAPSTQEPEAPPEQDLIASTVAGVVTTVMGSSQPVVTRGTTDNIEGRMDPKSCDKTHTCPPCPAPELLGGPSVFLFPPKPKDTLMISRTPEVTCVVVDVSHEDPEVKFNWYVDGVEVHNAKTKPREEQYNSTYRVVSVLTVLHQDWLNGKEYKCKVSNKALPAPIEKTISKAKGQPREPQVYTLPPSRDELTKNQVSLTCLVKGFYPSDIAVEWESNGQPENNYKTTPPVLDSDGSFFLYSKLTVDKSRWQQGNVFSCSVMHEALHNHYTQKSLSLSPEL
Protocol: (§6) FIG. 2: Characterization of NGF binding to p75, TrkA, and Sortilin as measured by surface plasmon resonance analysis (BIAcore). Binding of 50-500 nM NGF was measured to 91.5 fmol/mm^2 immobilized p75-IgG-Fc chimeric protein (upper panel), to 66 fmol/mm^2 immobilized TrkA-IgG-Fc (middle panel), and to 51 fmol/mm^2 purified Sortilin extracellular domain (lower panel). The on and off rates—100 to 600 seconds and 600 to 1000 seconds, respectively—were recorded and the Kd values for NGF binding were calculated to ˜1 nM for p75, ˜2 nM for TrkA, and ˜8 nM for Sortilin. […]
(§7) FIG. 3: Characterization of proNGF binding to p75, TrkA, and Sortilin as measured by surface plasmon resonance analysis (Biacore). Binding of 25-500 nM proNGF was measured to 91.5 fmol/mm^2 immobilized p75-IgG-Fc chimeric protein (upper panel), to 66 fmol/mm^2 immobilized TrkA-IgG-Fc (middle panel), and to 51 fmol/mm^2 purified Sortilin extracellular domain (lower panel). […]
(§8) FIG. 4: Characterization of binding of the proNGF propeptide to p75, TrkA, and Sortilin as measured by surface plasmon resonance analysis (Biacore). Binding of 25-500 nM propeptide was measured to 91.5 fmol/mm^2 immobilized p75-IgG-Fc chimeric protein (upper panel), to 66 fmol/mm^2 immobilized TrkA-IgG-Fc (middle panel), and to 51 fmol/mm^2 purified Sortilin extracellular domain (lower panel). […]

TrkA-IgG-Fc = target: T5, TrkA-IgG-Fc (Homo sapiens, UniProt P04629); test: Surface plasmon resonance (BIAcore) binding to immobilized TrkA-IgG-Fc; details: 66 fmol/mm^2 immobilized TrkA-IgG-Fc; calculated from on and off rates
T5 construct: purchased R&D systems (Oxon, UK)
T5 sequence (P04629 34-407 isoform P04629-2 limits assumed): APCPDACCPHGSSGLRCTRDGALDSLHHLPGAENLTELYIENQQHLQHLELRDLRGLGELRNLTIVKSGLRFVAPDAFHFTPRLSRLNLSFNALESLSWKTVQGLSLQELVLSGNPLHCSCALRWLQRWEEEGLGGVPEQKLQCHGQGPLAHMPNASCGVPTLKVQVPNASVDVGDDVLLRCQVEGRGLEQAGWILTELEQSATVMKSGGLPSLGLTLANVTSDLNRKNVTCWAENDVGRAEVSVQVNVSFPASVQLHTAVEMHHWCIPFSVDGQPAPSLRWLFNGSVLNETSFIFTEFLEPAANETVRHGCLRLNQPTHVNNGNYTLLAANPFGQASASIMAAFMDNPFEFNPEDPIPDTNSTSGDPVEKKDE
Protocol: as §6, §7, §8

[7] = target: T6, Sortilin extracellular domain (Homo sapiens, UniProt Q99523); test: Surface plasmon resonance (BIAcore) binding to immobilized purified Sortilin extracellular domain; details: 51 fmol/mm^2 purified Sortilin extracellular domain; calculated from on and off rates
T6 construct: 51 fmol/mm^2 purified Sortilin extracellular domain; made in house; host or cells: stably transfected CHO cells
T6 sequence (Q99523 78-755 limits assumed): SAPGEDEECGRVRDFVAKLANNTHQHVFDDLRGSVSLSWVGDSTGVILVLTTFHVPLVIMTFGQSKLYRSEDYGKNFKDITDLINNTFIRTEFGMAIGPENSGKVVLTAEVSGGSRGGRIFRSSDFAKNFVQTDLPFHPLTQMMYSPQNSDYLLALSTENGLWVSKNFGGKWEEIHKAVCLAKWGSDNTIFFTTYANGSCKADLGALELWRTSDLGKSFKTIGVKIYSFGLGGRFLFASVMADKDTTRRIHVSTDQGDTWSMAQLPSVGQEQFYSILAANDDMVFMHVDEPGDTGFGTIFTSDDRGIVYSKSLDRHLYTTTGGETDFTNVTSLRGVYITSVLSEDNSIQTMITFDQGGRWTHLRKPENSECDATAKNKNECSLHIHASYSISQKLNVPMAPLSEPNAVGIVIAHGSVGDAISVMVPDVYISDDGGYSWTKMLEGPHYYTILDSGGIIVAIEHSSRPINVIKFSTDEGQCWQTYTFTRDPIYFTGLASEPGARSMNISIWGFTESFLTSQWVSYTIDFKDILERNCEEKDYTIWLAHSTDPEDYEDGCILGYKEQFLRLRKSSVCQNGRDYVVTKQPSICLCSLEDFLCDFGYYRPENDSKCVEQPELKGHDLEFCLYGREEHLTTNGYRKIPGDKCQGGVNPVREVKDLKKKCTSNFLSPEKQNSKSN
Protocol: as §6, §7, §8

[8] = target: T7, proNGF binding to immobilized Sortilin (Homo sapiens, UniProt Q99523); test: Inhibition of proNGF binding to immobilized Sortilin (Biacore); details: 5 μM inhibitor prebound, then coinjection; 51 fmol/mm^2 Sortilin (FIG. 6)
T7 construct: 51 fmol/mm^2 purified Sortilin extracellular domain; made in house; host or cells: Sortilin: stably transfected CHO cells; proNGF: E. coli
T7 sequence (Q99523 78-755 limits assumed): T6 sequence (Q99523 78-755 limits assumed)

FAKNFVQTD (listed as Homo Sapiens)
pro-dom-BDNF binding in SPOT analysis (pro-dom-BDNF [1]): efficient binding
pro-dom-NGF binding in SPOT analysis (pro-dom-NGF [2]): efficient binding

RIFR: 4-mer sortilin peptide, SEQ ID NO:25 residues 7-10 (listed as Homo Sapiens)
pro-dom-BDNF binding in SPOT analysis (pro-dom-BDNF [1]): binds very strongly
pro-dom-NGF binding in SPOT analysis (pro-dom-NGF [2]): binds very strongly

RIFRSSDF (listed as Homo Sapiens)
pro-dom-BDNF binding in SPOT analysis (pro-dom-BDNF [1]): efficient binding
pro-dom-NGF binding in SPOT analysis (pro-dom-NGF [2]): efficient binding

RIFRSSDFAKNF (listed as Homo Sapiens)
direct interaction with immobilized pro-dom-BDNF (pro-dom-BDNF [3]): direct binding
affinity towards pro-dom-BDNF compared with pro-dom-NGF (pro-dom-BDNF [3]): higher affinity of the peptides towards BDNF than NGF
direct interaction with immobilized pro-dom-NGF (pro-dom-NGF [4]): direct binding

RSSDFAKNFVQTDLPF (listed as Homo Sapiens)
inhibition of Sortilin binding to immobilized pro-dom-BDNF ([5]; 300 uM peptide, 390 nM wild-type Sortilin domain, CaHBS buffer): ~66%
competition of sortilin binding to immobilized pro-dom-BDNF ([5]; FIG. 19, + peptide): significantly inhibited
direct interaction with immobilized pro-dom-BDNF (pro-dom-BDNF [3]): direct binding
affinity towards pro-dom-BDNF compared with pro-dom-NGF (pro-dom-BDNF [3]): higher affinity of the peptides towards BDNF than NGF
direct interaction with immobilized pro-dom-NGF (pro-dom-NGF [4]): direct binding

proNGF: Human recombinant proNGF produced and purified in E. coli
Kd [6]: ~12 nM

B1: proNGF propeptide: human NGF-propeptide expressed in E. coli (protein)
chain: T2 sequence (P01138 19-121 A35V)
Kd for binding to p75 [6]: no detectable binding
Kd for binding to TrkA (TrkA-IgG-Fc): no detectable binding
Kd [7]: ~8 nM
inhibition of binding of 200 nM proNGF to immobilized Sortilin [8]: ~85%
